# Test results reported in the DeepSol protein solubility set.
# Experiment: soluble on expression in E. coli; label from the status in PepcDB or PDB records
row,Sequence,soluble on expression in E. coli
1,MGSDKIHHHHHHMTNDSIKSETEVAPRDQSAVGTIPWAIKGELILNCNCTVFCPCVVSLGKHPPTEGYCQAWAGVRIDEGHYGDADLSGLNVGLVLEIPGLMARGNWKAAAYIDERASDAAYEGLIDVFSGKARGTTGLFKVLVSEFLGAERAPVLFETEGKTRRLIVGYYIHGEVVPVGGADSDQDIVVTNTEYWMGPDITVATATKGRVRAFGRVWDFDGRSAEICQIDWKGPR,not soluble
2,GPLGSKVDLFDFELPERLIAQVPLEQRDASRLMVLDKHTGELTDSSFKHIISFFNEGDCLVLNNTRVLPARLFGTKEDTGAKVELLLLKQETGDKWETLAKPAKRVKKGTVVTFGDGRLKAICTEELEHGGRKMEFQYDGIFYEVLESLGEMPLPPYIKEQLDDKERYQTVYSKEIGSAAAPTAGLHFTEEILQQLKDKGVQIEFITLHVGLGTFRPVSADEVEEHNMHAEFYQMSEETAAALNKVRENGGRIISVGTTSTRTLETIAGEHDGQFKASSGWTSIFIYPGYEFKAIDGMITNFHLPKSSLIMLVSALAGRENILRAYNHAVEEEYRFFSFGDAMLII,soluble
3,MAVSLVKGGNVSLTKEAPTMNIAVVGLGWDARVTDGSEFDLDASVFMVGENGKVLSDQHFIFFNNKVSPCGSVVHQGDNRTGAGDGDDEQIKIDLKKVPADVKKIIFSVTIYDAEARKQNFGMVSNSFMRVVNEDNSAEIARFDLSEDASTETAMIFGELYRNNDEWKFKAVGQGFAGGLSALASQHGVSV,not soluble
4,MGSDKIHHHHHHMLSKFWRPQAPQMIGVDIGSYEIKAILLGKTADGYKIQAHSCVPIKKGAVVDHDIRDSAAVIEALKQVKRGLPKSAKFAAVSVSGSAVMTKVIYMDSSLTEEEMEAQIEIEADNLIPYSLDEVSIDFETLKTNKTDPTKVDVLLSACRTENIDSRVDALDAIDIDAKVVDVEGYALGRSAELIMAQLPPGAEEKSVALVDIGANMTTFAVVERGETIFTREQAFGGELFTQAILSTYGMSYDEAENAKIKGELPRNYTFEVLSPFQTQLLQQVKRTLQIYATASGKEKVDYIVLCGGTAKLEGMEALLLNELGINTVVANPFLGCLHGDELIKSQLQPNVNKYMVACGLALRSYAQWRI,not soluble
5,MGSDKIHHHHHHMTRILVLYFTRGGHTAKIANAIAEQLTLRGAKVDLVDINSAAATRINWSDYQLVALGACVLYGTYDKSVFQFIEQHVQALSFLPNSFFCVNVVARNPEKRIPENNKYLQKFITLSPWTPADLKIIAGKVDYPSWPWYDRLMIQLIMKITKGPTDPKAVIDYTDWEDVKVYADHLLTLVEVAEPA,not soluble
6,MEALRSAPRAAHFLPMELQSSGERSPPREGAPVGTGATAGETPSAAPSGTPLWIPPRLATLDEVTLCHNIHRYRCFIEEGTALLPPLKTDVYCNGKTSSIATRLSVGAVVDAARRALSGSPAFAFCLVRPPGHHASADTPSGFCLVNNVAIAAMQLLQDWHVKYDCGVGGSRSVPSEERDIPERPRIAIVDIDVHHGEGTQSFVEVEPQLLYLSLHRYDRGSFYPCDPAGATSYVGQHRNICNVAVDTAATDPARCEEVISDMLFARVVDDVFLPRLEQFHPNIILLSLGFDAAHGDPLGRMAVEGGFAYVVRALKRFCLQSQGTIGLVAVLEGGYSPEGVSRGVVSVAHALCYPFDDVAVVNYARLRTPKTWMELRSRLSRRMEVRTDETGGATSLSSGLSSQGLGDATSTERAIAD,not soluble
7,PPNEQAVLNMYEGKRSELSQIYSNITDLEMQVSEHSLVINAIQPLDQSRKCFRMIGGVLVERTIKEVLPAVQRNKDGLEEVVRKLYETLEKKKKDLTEFEAKYKIRITKQEDNKEGGNKKEGNAQGVLVGAASSSQ,not soluble
8,MNFHFTLDNDRKRRRSLSIDIDINFNDKAPGTSSDNEQRAPKRRADEEAVNAVPKNLLTTSSTFARAVIPAAPAISSANNKMAPQSVTATAKTTTNRGKVSGEGEYQLIKNEVLCSPYGNQYEVLEFLGKGTFGQVVKAWKKGTSEIVAIKILKKHPSYARQGQIEVSILSRLSNENSEEFNFVRAFECFNHKSHTCLVFEMLEQNLYDFLKQNKFMPLPLNAIRPILFQVLTALLKLKSLGLIHADLKPENIMLVDPQQQPYRVKVIDFGSASHRSKAVTNTYLQSRYYRAPEIILGLPFNESIDMWSLGCVIAELFLGWPLYPGSSEYDQIRFIIQTQGLPPTSMLESASKLHRFFKEVKSESPNHTNVGGSYYRLKTVEEYEASSSTAKSKETRKYIFNVIDDISRVCYGFESDPVEHLCDRIDRQEFVDVLKKMLVLNPDFRITPAEGLESKFVTMTHINGYNFANYVHEAHKRMEICRKPGPAMATPYRAANVATPITPVEKPPAPKLQQPMIAVLPQLNQIAATNIPPVPTQPDLTNLMHHYSQMAAATGSAATAAQFFYQPLPPAPLFQYAQLHHPFAARPPHFLSLATPSHMVPQFVPVPIMDPSMLQGQWPPGAAQQFAVLANDIMRVPAPQGINQMFASTPQTFSLPQFLSSSIPSATTAFNGNAPNIPFPEENSSWALGTAAQQQQQQAQRAQSMINGNVKVKPLAAQPKKNSPAPSVITLSSDEDSNGAGSSNSGSTTRTGAVNPVRNDTLPMGNTIKTEDILVPPTTFDGQLPNLQYFPGSHLFDPKTVAGLLPNPFLDTSHIPRAFN,not soluble
9,MAEQLEFFPVASPCRGICQSDERGFCRGCMRSRDERFNWQKMSDVEKQNVLRLCRQRFLRKIRANKPLPSEDPQQPSLF,not soluble
10,MNDMSDWKPKRFWKQAAVAETAEGYAVELDGRPVRTPAKAPLLLPTRALAEAIAAEWDAQESEVDPINMPFTRTANAAIDKVRIQQAEVADMLAAYGDSDLLCYRADSPAELVELQAQTWDPALDWAAETLGVRLRPVQGVMHQPQPASAIETLTRKVHALNPFQLAAFHDLVSLSGSLVLGFAAALNWRKADEIWQISRLDETWQEEQWGPDDEARALAAVKRAAFLHAKAAYDISTLEHHHHHH,not soluble
11,LPVTDNHIHVDDKHGYGAEKVAKTFYNAGGKVMIVLNKPTFDGNLTASMDILVRDVEIINKNTPVKAFGLVGVHPAELTYLMKFMSLEEAKQRIVDALNYAKKLVEEYDFIVGIGEVGRPHYPVSEDVWKASNEILKYCMELAKDIGCAIQIHAESSTEEQFKEFSEMAKEVGLNPEKVVKHHCGNMVLEGERYGIFPSILASRVNEDVVKKSLRFVMETDYIDDLKRPGVALGIKTVPRVTRRLIEKGVLDEEGVYKIHKENIERIYDM,not soluble
12,MNIAALLSGGVDSSVVVHLLCEQGYKPTLFYIKIGMDGAEYMDCSAEEDIEMSTAIARKYGLSLEVVDLHKEYWENVAAYAIDKIKKGLTPNPDVMCNKLIKFGCFEQQVGKNFDFTATGHYATTIRQDGKTWLGTAKDPVKDQTDFLAQIDYLQVSKLMFPIGGLMKQEVREIASRAGLPSARRKDSQGICFLGKINYNDFVRRFLGEREGAIIELETGKKVGTHRGYWFHTIGQRKGLGLSGGPWFVIKKDVEENIIYVSHGYGVETQFGSEFRINDFHFITENPWKDAGKEIDITFKIRHTPEFTKGKLVQEEGGQFRILSSEKLQGIAPGQFGVIYDEEAGICVGSGEITRLEHHHHHH,soluble
13,LIIFVFGYYLAFNQNKYVSYNDETKQFVHTDTSKIMENLVNRQQGIYYFGFPTCPWCLELLPILDKELEKESMNAYAVNTRGDDYTENDDELLQKFYQKYTGDESLSVPFIVAINNKKEVQVHIGTVKNHDATKTKLKRRQKE,not soluble
14,MRPAGRSNNQVRPVTLTRNYTKHAEGSVLVEFGDTKVLCTASIEEGVPRFLKGQGQGWITAEYGMLPRSTHTRNAREAAKGKQGGRTMEIQRLIARALRAAVDLKALGEFTITLDCDVLQADGGTRTASITGACVALVDALQKLVENGKLKTNPMKGMVAAVSVGIVNGEAVCDLEYVEDSAAETDMNVVMTEDGRIIEVQGTAEGEPFTHEELLILLALARGESNPL,soluble
15,MGSDKIHHHHHHMKIGILTFANVPNFGANLQALSTISYLQNHGYNPILIKWEPEDFEARFTSIKTQKQPQEHFHFVEKYLPQTKICRNDDDICQVIKDEKIEGIIIGSDAVLQCSSFWGRLDFPTKTVVRVNKTTSEREYPNAFWGTFYDKLGSKIPMVIMSASSQNAKYRLIARSVKHKMSNNLSHFEYISVRDIWTRDMITYITKGAIIPNITPDPVFAFNYNCAKFIPSKEDILLKYHLPENYVLVSMKCRMLDNMLWMDKLKSEMKKLYLECVALPMPTGIEFKHNFDFSITTPLPPLDWYALIKYAKGYIGENMHPIVVALHNAVPCFCFDTYGVLKYARCVCVEESSKIYDIMSRFSLLDNRINAYSRFWKCPPVDIVINRILHFDVIACQKTALNYYNNYEQMMSSILEVFKSK,not soluble
